Target: EGFP-EVH2(Mena) (mouse)
Experiment: cross-linking; lysates of MV^D7 cells stably expressing EGFP-EVH2 (Mena); 100 mM EDC and 10 mM NHS-ester, 1 h, room temperature; 50 mM MES pH 6.0, 500 mM NaCl; SDS/6% PAGE and anti-GFP western blot

stoichiometry N: 4
Substance: EGFP-EVH2(Mena) (domain or fragment)

— article PMC4721544
